The results in this text go back to paper PMC11721587, “Morphogen-induced kinase condensates transduce Hh signal by allosterically activating Gli” (Science Advances, 2025).

Data set [1] deals with the molecule itself. Briefly: co-sedimentation; sedimentation assay of HEK293T cells overexpressing Ulk3-HA constructs; S100 soluble, P100 condensates.
Data set [2] concerns the molecule itself. Briefly: SDS-PAGE and immunoblot (SDS-resistant dimer); SDS-resistant ~250 Kd Fu dimer ('mature Fu') in extracts of cells (Cl8 with Hh-conditioned medium, S2, Sf9, wing discs); tells nothing of SDS-labile association. On the technique in general: In western blotting, separated proteins are transferred to a membrane and probed.

B1: Ulk3-HA^WT (in HEK293T) (enzyme, mouse, UniProt Q3U3Q1 1-472, looked up)
chain: MAGPSWGLPRLDGFILTERLGSGTYATVYKAYAKKDTREVVAIKCVAKKSLNKASVENLLTEIEILKGIRHPHIVQLKDFQWDNDNIYLIMEFCAGGDLSRFIHTRRILPEKVARVFMQQLASALQFLHERNISHLDLKPQNILLSSLEKPHLKLADFGFAQHMSPWDEKHVLRGSPLYMAPEMVCRRQYDARVDLWSVGVILYEALFGQPPFASRSFSELEEKIRSNRVIELPLRPQLSLDCRDLLQRLLERDPARRISFKDFFAHPWVDLEHMPSGESLAQARALVVEAVKKDQEGDAAAALSLYCKALDFFVPALHYEVDAQRKEAIKAKVGQYVSRAEELKAIVSSSNQALLRQGTTVQELLREMARDKPRLLAALEVASAALAKEEEAGKEQDALDLYQHSLGELLVLLAAEAPGRRRELLHTEVQNLMARAEYLKEQIKIRESHWEAESLDKEGLSESVRSSCTLQ
modifications: SUMO-conjugated form enriched in the condensates (P100)
notes: source: HEK293T, transfected, overexpressed; in lysate fractions (S100, P100); purified from HEK293T for in vitro maturation; not shown: 3x HA, C-terminal, kept
For B1, the binding result in data set [1] is “binds”.

B2: Flag-Fu^EE (enzyme)
chain: MNRYAVSSLVGQGSFGCVYKATRKDDSKVVAIKVISKRGRATKELKNLRRECDIQARLKHPHVIEMIESFESKTDLFVVTEFALMDLHRYLSYNGAMGEEPARRVTGHLVSALYYLHSNRILHRDLKPQNVLLDKNMHAKLCDFGLARNMELGEHVLTSIKGTPLYMAPELLAEQPYDHHADMWSLGCIAYESMAGQPPFCASSILHLVKMIKHEDVKWPSTLTSECRSFLQGLLEKDPGLRISWTQLLCHPFVEGRIFIAETQAEAAKESPFTNPEAKVKSSKQSDPEVGDLDEALAALDFGESRQENLTTSRDSINAIAPSDVEHLETDVEDNMQRVVVPFADLSYRDLSGVRAMPMVHQPVINSHTCFVSGNSNMILNHMNDNFDFQASLRGGGVAAKPIVAPTVRQSRSKDLEKRKLSQNLDNFSVRLGHSVDHEAQRKATEIATQEKHNQENKPPAEAISYANSQPPQQQPQQLKHSMHSTNEEKLSSDNTPPCLLPGWDSCDESQSPPIENDEWLAFLNRSVQELLDGELDSLKQHNLVSIIVAPLRNSKAIPRVLKSVAQLLSLPFVLVDPVLIVDLELIRNVYVDVKLVPNLMYACKLLLSHKQLSDSAASAPLTTGSLSRTLRSIPELTVEELETACSLYELVCHLVHLQQQFLTQFCDAVAILAASDLFLNFLTHDFRQSDSDAASVRLAGCMLALMGCVLRELPENAELVERIVFNPRLNFVSLLQSRHHLLRQRSCQLLRLLARFSLRGVQRIWNGELRFALQQLSEHHSYPALRGEAAQTLDEISHFTFFVT
modifications: SUMOylated in Sf9 cells (condensate fraction)
In the case of B2, the “stoichiometry N” value in data set [2] was 2.

B3: fused (Fu) (enzyme, Drosophila (endogenous in Cl8), UniProt P23647 1-805, looked up)
chain: MNRYAVSSLVGQGSFGCVYKATRKDDSKVVAIKVISKRGRATKELKNLRRECDIQARLKHPHVIEMIESFESKTDLFVVTEFALMDLHRYLSYNGAMGEEPARRVTGHLVSALYYLHSNRILHRDLKPQNVLLDKNMHAKLCDFGLARNMTLGTHVLTSIKGTPLYMAPELLAEQPYDHHADMWSLGCIAYESMAGQPPFCASSILHLVKMIKHEDVKWPSTLTSECRSFLQGLLEKDPGLRISWTQLLCHPFVEGRIFIAETQAEAAKESPFTNPEAKVKSSKQSDPEVGDLDEALAALDFGESRQENLTTSRDSINAIAPSDVEHLETDVEDNMQRVVVPFADLSYRDLSGVRAMPMVHQPVINSHTCFVSGNSNMILNHMNDNFDFQASLRGGGVAAKPIVAPTVRQSRSKDLEKRKLSQNLDNFSVRLGHSVDHEAQRKATEIATQEKHNQENKPPAEAISYANSQPPQQQPQQLKHSMHSTNEEKLSSDNTPPCLLPGWDSCDESQSPPIENDEWLAFLNRSVQELLDGELDSLKQHNLVSIIVAPLRNSKAIPRVLKSVAQLLSLPFVLVDPVLIVDLELIRNVYVDVKLVPNLMYACKLLLSHKQLSDSAASAPLTTGSLSRTLRSIPELTVEELETACSLYELVCHLVHLQQQFLTQFCDAVAILAASDLFLNFLTHDFRQSDSDAASVRLAGCMLALMGCVLRELPENAELVERIVFNPRLNFVSLLQSRHHLLRQRSCQLLRLLARFSLRGVQRIWNGELRFALQQLSEHHSYPALRGEAAQTLDEISHFTFFVT
notes: Fu Ser/Thr kinase, Drosophila, endogenous in Cl8 cells; After Hh it is phosphorylated (T158/S159, S482) and SUMO-conjugated; the SDS-resistant dimer is called mature Fu; also called endogenous Fu; mature Fu; source: endogenous, Cl8 cells (fractions, lysates)
Take B3: the “stoichiometry N” value in data set [2] stood at 2.

The stoichiometry N is a count of units in the complex or per binding partner.
